{"source": "patent US12636342B2", "about": "“TARS derived from Akkermansia muciniphila or fragment thereof, and use thereof” (KOREA RESEARCH INSTITUTE OF BIOSCIENCE AND BIOTECHNOLOGY, priority 2020, dated 2026)", "molecules": {"B1": {"name": "Akkermansia muciniphila-derived threonyl-tRNA synthetase (TARS) (protein)", "chain": "MSEHKERKTLEERQQMSDLERLRHSCAHVLATAICRLWPDAQLAGGPAVDNGFYYDVELDHRISTEDFERIEEEMKKVVKENQVFQKEVISRADAMKMAESGELGALGPRSEPSRFKIDLLNDIPEDEEISLYRNGDFTDLCAGPHVGRTGNCKAFKIMSVASAFYKGDKNRPMLQRIYGTCFPNRTQLDEHLERLEEARRRDHRKLGRELGLFCIDESVGQGLILWKPKGALIRRSLQDFITEELDKLGYSQVYTPNIGKLDLYRTSGHFPYYQESQYAPIPERDAMEKLSQEGASCAELFNGLATGTIEGYMLKPMNCPHHIKIYANDAHSYRDLPVRLAEFGTVYRWEQSGELGGMTRVRGFTQDDAHIFCTPDQLAGEIRQCLGIVKTIFGTLGMTDYRVRLSMRDPESDKYVGSPENWDKAEQALREAAEWLGADYSEEAGEAAFYGPKIDFIVRDAIGREWQLGTVQVDYNLPERFDLHYTGADNKPHRPVMVHRAPFGSMERFTGLLIEHFEGKFPTWLSPEQVRVLPISDKVTDVAAAHRTALAARGVRVTVDETPDKIGAKIRNARLDRVPYMLVLGQREAEDGTVSVRHRDKGDLGAMPFEQFADLVAREIAERHISPVI", "modifications": "Akkermansia muciniphila TARS"}}, "key": {"human macrophages (THP1)": {"tested_on": "human macrophages (THP1)", "test": "ELISA of immune cytokine secretion in THP1 under normal conditions", "assay_type": "cell-based", "conditions": "THP1, 0.1, 0.2, 0.5 μM, 24 h", "procedure": "Specifically, mouse bone marrow-derived macrophages (BMDMs) as mouse-derived immune cells were extracted from the mouse thighbone and shinbone, and then cultured in DMEM containing 10% fetal bovine serum (FBS) and antibiotics. Human macrophages (THP1) as human-derived immune cells were cultured in RPMI media containing 10% FBS and antibiotics.\nThe cultured cells were treated with AmTARS at 0.1 μM, 0.2 μM, and 0.5 μM for 24 h to obtain cell cultures. For cell removal, the media were centrifuged at 500×g for 10 min to obtain supernatants, which were then analyzed using an ELISA set (mouse interleukin (IL)-6, mouse IL-10, mouse tumor necrosis factor (TNF)-α, human IL-6, human IL-10, human TNF-α; BD Biosciences) to investigate the secretion of mouse- and human-derived immune cytokines."}, "[1]": {"molecular_target": "T1, Toll-like receptor 2 (TLR2) (Homo sapiens, UniProt O60603)", "T1 construct": "13; TLR2; 17; pIRES-FLAG; FLAG; Mammal; FLAG (C); expressed in transfected cells; host or cells: HEK 293T (human)", "T1 sequence (O60603 21-784)": "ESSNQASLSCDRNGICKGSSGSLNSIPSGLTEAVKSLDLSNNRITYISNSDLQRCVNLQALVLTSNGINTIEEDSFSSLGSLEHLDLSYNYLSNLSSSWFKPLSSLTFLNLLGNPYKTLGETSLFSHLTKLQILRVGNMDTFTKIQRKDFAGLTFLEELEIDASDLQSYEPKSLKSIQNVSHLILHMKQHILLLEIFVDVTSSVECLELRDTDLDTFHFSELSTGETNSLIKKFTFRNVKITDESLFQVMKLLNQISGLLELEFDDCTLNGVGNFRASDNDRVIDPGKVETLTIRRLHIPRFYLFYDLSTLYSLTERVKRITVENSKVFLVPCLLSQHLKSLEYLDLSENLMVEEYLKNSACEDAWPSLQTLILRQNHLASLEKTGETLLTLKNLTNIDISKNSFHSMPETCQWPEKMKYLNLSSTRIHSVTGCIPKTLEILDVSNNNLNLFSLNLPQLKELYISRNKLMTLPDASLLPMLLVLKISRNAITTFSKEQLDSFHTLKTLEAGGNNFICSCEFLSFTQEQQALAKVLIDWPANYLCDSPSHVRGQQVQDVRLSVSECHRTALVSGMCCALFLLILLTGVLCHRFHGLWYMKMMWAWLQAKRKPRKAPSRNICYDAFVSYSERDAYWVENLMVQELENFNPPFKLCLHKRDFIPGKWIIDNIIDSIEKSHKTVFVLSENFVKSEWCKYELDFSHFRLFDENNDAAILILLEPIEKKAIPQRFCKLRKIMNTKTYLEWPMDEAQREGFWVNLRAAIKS", "test": "Pull-down / in vitro interaction assay with TLR2", "assay_type": "binding", "procedure": "Then, Strep-tagged AmTARS, AmTARS having deletions of two functional site (AmTARSΔ1Δ2), and FLAG-tagged TLR2 were transduced into human-derived HEK 293T cells through PEI, and thereafter, the cells were lysed using a lysis buffer containing 50 mM Tris-HCl (pH 7.5), 100 mM NaCl, 1% NP-40, 1 mM EDTA, 0.25% Na-deoxycholate, and a protease inhibitor cocktail. The cell lysates each were incubated with Strep Tactin beads and washed with a buffer containing 137 mM NaCl, 2.7 mM KCl, 10 mM Na2HPO4, 1.8 mM KH2PO4, and 1 mM EDTA, and proteins attached to the beads were eluted and analyzed by immunoblotting.\nIn addition, His-tagged AmTARS and FLAG-tagged protein were mixed at a ratio of 1:2, incubated with Ni-NTA beads, and then washed with a buffer containing 50 mM Tris-HCl (pH 8.0), 300 mM NaCl, 30 mM imidazole, and 1% NP-40, and the proteins attached to the beads were eluted and identified on SDS-PAGE gel."}, "BMDMs from TLR2-KO mouse": {"tested_on": "BMDMs from TLR2-KO mouse", "test": "IL-10 production in BMDMs from TLR2 knock-out mice", "assay_type": "cell-based", "text": "The TLR2-dependent immune function of AmTARS was further corroborated using TLR2 knock-out (KO) mice. […] However, IL-10 production by […] (U1/U2) was abolished in BMDMs from TLR2-KO mice, providing further evidence that AmTARS regulates host immune cells via its unique regions in a TLR2-dependent manner (FIG. 28D)."}, "BMDMs": {"tested_on": "BMDMs", "test": "Immunoblotting of AmTARS/TLR2-induced signaling molecules in BMDMs", "assay_type": "cell-based, mouse", "procedure": "(§1) (A and B) Analysis of key molecules that inhibit the MAPK and PI3K/AKT signaling pathways. IL-10 produced by BMDMs pre-treated with inhibitors of ERK (PD98059, […]), p38 (SB203580, […]), MSK1/2 (SB747651A, 10 μM), CREB (666-15, 1 μM), PI3K (Wortmannin, 10 μM), and AKT1/2 (AKT1/2, 10 μM) for 1 h before treatment with either PBS or AmTARS for 24 h (n=6 per group) (A). Flow cytometry analysis of M2 macrophages in BMDMs pre-treated for 1 h with the indicated kinase inhibitors, before treatment with either PBS or AmTARS for 24 h (n=3 per group) (B). (C and D) Western blot analysis of MAPK signaling molecules in lysates of BMDMs (C) or THP1 cells (D) treated for different times with 0.5 μM AmTARS. (E) Western blot analysis of lysates of BMDMs pre-treated with α-IgG (Isotype, 1 μg ml-1) or α-TLR2 (1 μg ml-1) for 1 h before treatment with PBS, AmTARS (0.5 μM), or Pam3 (0.5 μM) for 30 min. (F and G) Western blot analysis of PI3K/AKT signaling molecules in lysates of BMDMs (F) or THP1 cells (G) treated with 0.5 μM AmTARS. (H) AmTARS activates both TLR2/1- and TLR2/6-mediated signaling. Activation of AKT, ERK, and CREB was measured by western blot analysis of lysates of THP1 cells pre-treated with α-IgG, α-TLR1, α-TLR2, or α-TLR6 (1 μg ml-1) for 1 h before treatment for 30 min with PBS or AmTARS (0.5 µM). Data shown in (A and B) are representative of three independent experiments, each with similar results (mean±SEM). P-values were calculated using an unpaired two-tailed Student's t-test. Data shown in (C-H) are representative and repeated at least three times.\n(§2) Subsequently, we conducted immunoblotting assays to measure the time-dependent activation of AmTARS/TLR2-induced signaling molecules in both BMDMs and THP1 cells. AmTARS rapidly activated ERK, p38, and MSK1/2 within 15 min and, subsequently, phosphorylation of CREB at Ser133 (which is essential for IL-10 production) within 30 min in BMDMs (FIG. 31C) and THP1 cells (FIG. 31D). We then compared AmTARS-triggered TLR2 signaling with typical ligand-triggered signaling using Pam3CSK4 (the synthetic canonical TLR2/1 agonist, referred to hereafter as Pam3) in BMDMs stimulated for 30 min. […] By contrast, activation of NF-κB was greater in Pam3-treated BMDMs than in AmTARS-treated BMDMs (FIG. 31E)."}, "THP1 cells": {"tested_on": "THP1 cells", "test": "Immunoblotting of AmTARS/TLR2-induced signaling molecules in THP1 cells", "assay_type": "cell-based, human", "procedure": "as §1, §2"}}, "data": [{"molecule": "B1", "values": [{"measurement": "secretion of IL-6", "setting": "human macrophages (THP1)", "value": "not secreted"}, {"measurement": "secretion of IL-10", "setting": "human macrophages (THP1)", "value": "increased in a dose-dependent manner"}, {"measurement": "secretion of TNF-α", "setting": "human macrophages (THP1)", "value": "not secreted"}, {"measurement": "interaction with TLR2 among candidates tested (pull-down)", "setting": "[1]; HEK 293T cells, Strep-AmTARS and TLR2-FLAG", "value": "interacted only with TLR2"}, {"measurement": "direct interaction with TLR2 (in vitro pull-down)", "setting": "[1]; purified TLR2-FLAG and His-tagged proteins, Ni-NTA", "value": "interacts directly with TLR2 via the U2-containing catalytic domain (CD)"}, {"measurement": "IL-10 production", "setting": "BMDMs from TLR2-KO mouse", "value": "did not induce IL-10 production"}, {"measurement": "activation of CREB, AmTARS versus Pam3", "setting": "BMDMs; BMDMs stimulated for 30 min, 0.5 μM", "value": "significantly greater"}, {"measurement": "time to activation of AKT", "setting": "BMDMs; BMDMs, 0.5 μM AmTARS", "value": "≤ 15", "unit": "min"}, {"measurement": "time to activation of ERK", "setting": "BMDMs; BMDMs, 0.5 μM AmTARS", "value": "≤ 15", "unit": "min"}, {"measurement": "time to activation of MSK1/2", "setting": "BMDMs; BMDMs, 0.5 μM AmTARS", "value": "≤ 15", "unit": "min"}, {"measurement": "time to activation of PI3K", "setting": "BMDMs; BMDMs, 0.5 μM AmTARS", "value": "≤ 15", "unit": "min"}, {"measurement": "time to activation of p38", "setting": "BMDMs; BMDMs, 0.5 μM AmTARS", "value": "≤ 15", "unit": "min"}, {"measurement": "time to inhibition of GSK3β activity (phosphorylation at Ser9)", "setting": "BMDMs; BMDMs, 0.5 μM AmTARS", "value": "≤ 15", "unit": "min"}, {"measurement": "time to phosphorylation of CREB at Ser133", "setting": "BMDMs; BMDMs, 0.5 μM AmTARS", "value": "≤ 30", "unit": "min"}, {"measurement": "time to activation of AKT", "setting": "THP1 cells; 0.5 μM AmTARS", "value": "≤ 15", "unit": "min"}, {"measurement": "time to activation of ERK", "setting": "THP1 cells; 0.5 μM AmTARS", "value": "≤ 15", "unit": "min"}, {"measurement": "time to activation of MSK1/2", "setting": "THP1 cells; 0.5 μM AmTARS", "value": "≤ 15", "unit": "min"}, {"measurement": "time to activation of PI3K", "setting": "THP1 cells; 0.5 μM AmTARS", "value": "≤ 15", "unit": "min"}, {"measurement": "time to activation of p38", "setting": "THP1 cells; 0.5 μM AmTARS", "value": "≤ 15", "unit": "min"}, {"measurement": "time to inhibition of GSK3β activity (phosphorylation at Ser9)", "setting": "THP1 cells; 0.5 μM AmTARS", "value": "≤ 15", "unit": "min"}, {"measurement": "time to phosphorylation of CREB at Ser133", "setting": "THP1 cells; 0.5 μM AmTARS", "value": "≤ 30", "unit": "min"}, {"measurement": "AmTARS-induced TLR2 signaling (AKT, ERK, CREB) after antibody pre-treatment", "setting": "THP1 cells; α-TLR1, α-TLR2 or α-TLR6 1 μg ml-1 1 h, then AmTARS 0.5 μM 30 min", "value": "shut down by antibodies targeting TLR1, TLR6, and TLR2"}]}]}
